Source: patent publication US20140335192

What was measured:
Experiment in all cases: ITC
Settings in all cases: 250 uM protein into 40 uM siRNA, unit of K not stated
[1] = tested on: PTD (protein transduction domain peptide)
[2] = tested on: DRBD-PTD chimera (RND-DRBD)
[3] = tested on: DRBD (double-stranded RNA binding domain)

Luciferase siRNA
Ka ([1]; Sorensen's phosphate buffer, enthalpy 14.03 kJ/mol): 1.04e+07
Ka ([1]; deionized water, enthalpy 29.83 kJ/mol): 1e+10
Ka ([2]; Sorensen's phosphate buffer, enthalpy 61.51 kJ/mol): 2.12e+07
Ka ([2]; deionized water, enthalpy 98.92 kJ/mol): 1e+10
Ka ([3]; Sorensen's phosphate buffer, enthalpy 1998.83 kJ/mol): 15200
Ka ([3]; deionized water, enthalpy 201.18 kJ/mol): 10500
